{
  "source": "paper PMC12826058",
  "assay_in_all_cases": "SPR",
  "key": {"[1]": {"system": "His6-AdiY (Escherichia coli K-12 MG1655)", "conditions": "pH 6.0, phosphate; 1:4 DNA:protein; SPR (Biacore T200, SA chip), 25 C, 50 mM sodium phosphate pH 6.0-7.0 (50 mM citrate at pH 5.5 and 5.8), 250 mM NaCl, 2% glycerol, 2 mM DTT, 0.005% P20; 1:1 …"}, "[2]": {"biological_target": "T1, His6-AdiY (Escherichia coli K-12 MG1655) (UniProt P33234)", "T1 sequence": "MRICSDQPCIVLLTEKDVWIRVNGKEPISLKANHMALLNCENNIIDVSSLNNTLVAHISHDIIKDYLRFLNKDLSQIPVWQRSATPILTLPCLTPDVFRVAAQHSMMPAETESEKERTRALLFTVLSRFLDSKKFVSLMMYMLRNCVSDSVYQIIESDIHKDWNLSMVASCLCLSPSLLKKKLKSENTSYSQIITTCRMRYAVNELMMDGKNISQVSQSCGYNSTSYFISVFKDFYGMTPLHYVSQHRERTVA", "conditions": "SPR (Biacore T200, SA chip), 25 C, 50 mM sodium phosphate pH 6.0-7.0 (50 mM citrate at pH 5.5 and 5.8), 250 mM NaCl, 2% glycerol, 2 mM DTT, 0.005% P20; 1:1 …"}, "[3]": {"biological_target": "T2, His6-AdiY-H34A/H60A H34A;H60A (Escherichia coli K-12 MG1655) (UniProt P33234)", "T2 sequence": "T1 sequence with H34A, H60A", "conditions": "SPR (Biacore T200, SA chip), 25 C, 50 mM sodium phosphate pH 6.0-7.0 (50 mM citrate at pH 5.5 and 5.8), 250 mM NaCl, 2% glycerol, 2 mM DTT, 0.005% P20; 1:1 …"}},
  "note": "Changes are numbered by the printed parent chain.",
  "data": [
    {"substance": "PadiA (adiA promoter)", "values": [
      {"measurement": "Kd", "setting": "[1]", "result": 0.17, "unit": "µM"}
    ]},
    {"substance": "PadiC (adiC promoter)", "values": [
      {"measurement": "Kd", "setting": "[1]", "result": 0.12, "unit": "µM"}
    ]},
    {"substance": "TCTACGGTATGACGCCGCTGCATTATGTTAGTCAGCACAGAGAACGCACTGTCGCCTGATTTTTAACCTTAACGAAGAGCTATATTAATAACGGCATCAGCGATAACCCGGTCGATAATAATTCAACTATCGAATGCAGGCGTATGATATGACGTAATTTATTGTCACGAAGCTCGCCTTCGCAGGAGTTTAATT (double strand) [PadiC (adiC promoter)]", "values": [
      {"measurement": "Kd", "setting": "[2]", "result": 0.12, "unit": "µM"},
      {"measurement": "binding", "setting": "[2]", "result": "binds"},
      {"measurement": "binding", "setting": "[3]", "result": "no binding"}
    ]},
    {"substance": "TGCTTACCCGGTTATGAAGGAATCTTCGTTGCGGGCAAGTATCTTCCGGCCTTTTCGGGCTGTAAAGCGCGTGAAAAACAAACATTTTTGAAATATTTAGTTTTATAAACAATACGTTATGTGATTATTTTAAATTATTTTCACTGCTTATTATCGACGGCTAAACTATTTTTTTGGCTGATACTGATATCGTCT (double strand) [PadiA (adiA promoter)]", "values": [
      {"measurement": "Kd", "setting": "[2]", "result": 0.17, "unit": "µM"},
      {"measurement": "binding", "setting": "[2]", "result": "binds"},
      {"measurement": "binding", "setting": "[3]", "result": "no binding"}
    ]}
  ]
}
